{"source": "the supplement of paper PMC9112550", "about": "“Optimization of the antimicrobial peptide Bac7 by deep mutational scanning” (BMC Biology, 2022);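 further: peptides expressed intracellularly from a pBAD plasmid library in pooled LB shake-flask culture, induced with 0.3% L-arabinose, DNA abundance read by NGS, three biological replicates, DESeq2 with apeglm shrinkage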"}
{"tested_on": "Escherichia coli TOP10", "test": "shrunken log2 fold change of peptide-encoding DNA abundance (4.5 h post-induction vs induction); higher = less antimicrobial activity (less host growth inhibition)", "conditions": "time post-induction: 4.5 h; library: site-saturation at positions 5, 18, 19, 20"}
{"sequence": "RRIRVRPPRLPRPRPRPKNCPRP", "shrunken log2 fold change": -0.183}
{"sequence": "RRIRHRPPRLPRPRPRPLSIPRP", "shrunken log2 fold change": -0.326}
{"sequence": "RRIRFRPPRLPRPRPRPSDEPRP", "shrunken log2 fold change": -0.308}
{"sequence": "RRIRVRPPRLPRPRPRPFAHPRP", "shrunken log2 fold change": -0.176}
{"sequence": "RRIRQRPPRLPRPRPRPEGTPRP", "shrunken log2 fold change": 0.231}
{"sequence": "RRIRFRPPRLPRPRPRPFCFPRP", "shrunken log2 fold change": -0.343}
{"sequence": "RRIRRRPPRLPRPRPRPNCIPRP", "shrunken log2 fold change": 0.104}
{"sequence": "RRIRHRPPRLPRPRPRPFMQPRP", "shrunken log2 fold change": -0.348}
{"sequence": "RRIRSRPPRLPRPRPRPRRAPRP", "shrunken log2 fold change": 0.41}
{"sequence": "RRIRQRPPRLPRPRPRPSTGPRP", "shrunken log2 fold change": -0.0811}
{"sequence": "RRIRCRPPRLPRPRPRPVYPPRP", "shrunken log2 fold change": -0.559}
{"sequence": "RRIRFRPPRLPRPRPRPWIWPRP", "shrunken log2 fold change": 0.0425}
{"sequence": "RRIRHRPPRLPRPRPRPVTKPRP", "shrunken log2 fold change": -0.055}
{"sequence": "RRIRVRPPRLPRPRPRPFWMPRP", "shrunken log2 fold change": 0.0403}
{"sequence": "RRIRERPPRLPRPRPRPKNLPRP", "shrunken log2 fold change": 0.072}
{"sequence": "RRIRFRPPRLPRPRPRPDPYPRP", "shrunken log2 fold change": -0.437}
{"sequence": "RRIRIRPPRLPRPRPRPIVTPRP", "shrunken log2 fold change": -0.429}
{"sequence": "RRIRRRPPRLPRPRPRPNVKPRP", "shrunken log2 fold change": 0.0575}
{"sequence": "RRIRIRPPRLPRPRPRPSMEPRP", "shrunken log2 fold change": -0.343}
{"sequence": "RRIRGRPPRLPRPRPRPPMTPRP", "shrunken log2 fold change": 0.895}
{"sequence": "RRIRCRPPRLPRPRPRPSIHPRP", "shrunken log2 fold change": -0.929}
{"sequence": "RRIRQRPPRLPRPRPRPAFRPRP", "shrunken log2 fold change": 0.204}
{"sequence": "RRIRARPPRLPRPRPRPNEKPRP", "shrunken log2 fold change": -0.0878}
{"sequence": "RRIRKRPPRLPRPRPRPNWTPRP", "shrunken log2 fold change": -0.129}
{"sequence": "RRIRDRPPRLPRPRPRPCPQPRP", "shrunken log2 fold change": -0.132}
{"sequence": "RRIRTRPPRLPRPRPRPEHVPRP", "shrunken log2 fold change": 0.0823}
{"sequence": "RRIRDRPPRLPRPRPRPSVSPRP", "shrunken log2 fold change": 0.0104}
{"sequence": "RRIRDRPPRLPRPRPRPGDGPRP", "shrunken log2 fold change": 0.85}
{"sequence": "RRIRARPPRLPRPRPRPFRTPRP", "shrunken log2 fold change": 0.12}
{"sequence": "RRIRARPPRLPRPRPRPETKPRP", "shrunken log2 fold change": 1.27}
{"sequence": "RRIRWRPPRLPRPRPRPGALPRP", "shrunken log2 fold change": 0.406}
{"sequence": "RRIRARPPRLPRPRPRPEKQPRP", "shrunken log2 fold change": -0.148}
{"sequence": "RRIRQRPPRLPRPRPRPTAYPRP", "shrunken log2 fold change": 0.14}
{"sequence": "RRIRARPPRLPRPRPRPKVNPRP", "shrunken log2 fold change": -0.109}
{"sequence": "RRIRKRPPRLPRPRPRPDNKPRP", "shrunken log2 fold change": -0.119}
{"sequence": "RRIRQRPPRLPRPRPRPKNFPRP", "shrunken log2 fold change": -0.0816}
{"sequence": "RRIRMRPPRLPRPRPRPCVGPRP", "shrunken log2 fold change": 0.584}
{"sequence": "RRIRKRPPRLPRPRPRPIHRPRP", "shrunken log2 fold change": -0.0202}
{"sequence": "RRIRHRPPRLPRPRPRPLLRPRP", "shrunken log2 fold change": 0.0548}
{"sequence": "RRIRDRPPRLPRPRPRPLPGPRP", "shrunken log2 fold change": 0.312}
{"sequence": "RRIRCRPPRLPRPRPRPYGVPRP", "shrunken log2 fold change": -0.159}
{"sequence": "RRIRMRPPRLPRPRPRPKGDPRP", "shrunken log2 fold change": 2.08}
{"sequence": "RRIRVRPPRLPRPRPRPRPSPRP", "shrunken log2 fold change": 0.382}
{"sequence": "RRIRFRPPRLPRPRPRPMRRPRP", "shrunken log2 fold change": 0.542}
{"sequence": "RRIRERPPRLPRPRPRPWSLPRP", "shrunken log2 fold change": -0.0112}
{"sequence": "RRIRWRPPRLPRPRPRPHACPRP", "shrunken log2 fold change": 0.171}
{"sequence": "RRIRERPPRLPRPRPRPCNSPRP", "shrunken log2 fold change": 0.00408}
{"sequence": "RRIRYRPPRLPRPRPRPHLAPRP", "shrunken log2 fold change": 0.13}
{"sequence": "RRIRYRPPRLPRPRPRPYSEPRP", "shrunken log2 fold change": -0.199}
{"sequence": "RRIRSRPPRLPRPRPRPERSPRP", "shrunken log2 fold change": 0.206}
{"sequence": "RRIRGRPPRLPRPRPRPTRVPRP", "shrunken log2 fold change": 0.748}
{"sequence": "RRIRARPPRLPRPRPRPLIFPRP", "shrunken log2 fold change": 0.000397}
{"sequence": "RRIRIRPPRLPRPRPRPNECPRP", "shrunken log2 fold change": -0.0258}
{"sequence": "RRIRSRPPRLPRPRPRPACDPRP", "shrunken log2 fold change": 0.119}
{"sequence": "RRIRFRPPRLPRPRPRPVWEPRP", "shrunken log2 fold change": 0.00583}
{"sequence": "RRIRKRPPRLPRPRPRPNPMPRP", "shrunken log2 fold change": 0.459}
{"sequence": "RRIRERPPRLPRPRPRPCLLPRP", "shrunken log2 fold change": -0.0977}
{"sequence": "RRIRMRPPRLPRPRPRPQKHPRP", "shrunken log2 fold change": 0.159}
{"sequence": "RRIRMRPPRLPRPRPRPVGIPRP", "shrunken log2 fold change": 0.158}
{"sequence": "RRIRERPPRLPRPRPRPSTTPRP", "shrunken log2 fold change": -0.285}
{"sequence": "RRIRHRPPRLPRPRPRPPPWPRP", "shrunken log2 fold change": 0.446}
{"sequence": "RRIRMRPPRLPRPRPRPDMSPRP", "shrunken log2 fold change": -0.00277}
{"sequence": "RRIRKRPPRLPRPRPRPDLLPRP", "shrunken log2 fold change": 0.237}
{"sequence": "RRIRQRPPRLPRPRPRPLQMPRP", "shrunken log2 fold change": 0.122}
{"sequence": "RRIRIRPPRLPRPRPRPWLLPRP", "shrunken log2 fold change": -0.0948}
{"sequence": "RRIRCRPPRLPRPRPRPSILPRP", "shrunken log2 fold change": -0.739}
{"sequence": "RRIRRRPPRLPRPRPRPPAHPRP", "shrunken log2 fold change": 0.728}
{"sequence": "RRIRKRPPRLPRPRPRPAFSPRP", "shrunken log2 fold change": -0.0331}
{"sequence": "RRIRMRPPRLPRPRPRPIYMPRP", "shrunken log2 fold change": -0.0618}
{"sequence": "RRIRIRPPRLPRPRPRPRKNPRP", "shrunken log2 fold change": -0.133}
{"sequence": "RRIRPRPPRLPRPRPRPMKAPRP", "shrunken log2 fold change": 0.0531}
{"sequence": "RRIRLRPPRLPRPRPRPNWEPRP", "shrunken log2 fold change": -0.111}
{"sequence": "RRIRTRPPRLPRPRPRPHIAPRP", "shrunken log2 fold change": -0.348}
{"sequence": "RRIRPRPPRLPRPRPRPITNPRP", "shrunken log2 fold change": -0.471}
{"sequence": "RRIRGRPPRLPRPRPRPFSPPRP", "shrunken log2 fold change": 0.0723}
